T1: Wsp1p poly (p)-VCA (residues 129-574 including the polyproline domain and VCA) (S. pombe, UniProt O36027 129-574)
T1 sequence (looked up): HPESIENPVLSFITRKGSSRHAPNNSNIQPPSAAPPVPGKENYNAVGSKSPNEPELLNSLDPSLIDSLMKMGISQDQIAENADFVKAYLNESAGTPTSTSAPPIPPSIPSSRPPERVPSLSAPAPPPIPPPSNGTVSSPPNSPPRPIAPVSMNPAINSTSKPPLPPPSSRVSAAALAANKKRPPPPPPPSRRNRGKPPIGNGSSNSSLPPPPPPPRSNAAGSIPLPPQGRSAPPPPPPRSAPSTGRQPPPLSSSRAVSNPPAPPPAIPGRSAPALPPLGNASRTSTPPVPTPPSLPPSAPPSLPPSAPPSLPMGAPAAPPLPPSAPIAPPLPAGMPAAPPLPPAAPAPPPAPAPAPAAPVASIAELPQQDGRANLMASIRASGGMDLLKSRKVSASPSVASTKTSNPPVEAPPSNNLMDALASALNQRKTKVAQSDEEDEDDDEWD


Molecular target: T1, Wsp1p poly (p)-VCA (residues 129-574 …)
Experiment: pull-down

Kd | Binder
~2000 nM | GST-Bzz1pSH3 (residues 586-642) (domain or fragment, S. pombe, UniProt Q09746 586-642, looked up) SSYVKALYAYTAQSDMELSIQEGDIIQVTNRNAGNGWSEGILNGVTGQFPANYVTDV
~100 nM | GST-Bzz1pSH3SH3 (residues 521-642) (domain or fragment, S. pombe, UniProt Q09746 521-642, looked up) VVLYDFTGEHEGVITASEGQEFTLLEPDDGSGWVRVKIDGTDGLIPASYVKLNDELNTSVTLDGDSSYVKALYAYTAQSDMELSIQEGDIIQVTNRNAGNGWSEGILNGVTGQFPANYVTDV

— article PMC3350781 (Current Biology, 2011)
